Here are results for five molecules from article PMC130038.

Where two headings read alike, the source gives them in different places.

Holding throughout (test): EMSA
The target in data set [1] is T1, *VLF-1 (HAHIS-VLF-1, very late expression factor 1) (Autographa californica multiple capsid …, UniProt Q06687 1-379).
T1 sequence: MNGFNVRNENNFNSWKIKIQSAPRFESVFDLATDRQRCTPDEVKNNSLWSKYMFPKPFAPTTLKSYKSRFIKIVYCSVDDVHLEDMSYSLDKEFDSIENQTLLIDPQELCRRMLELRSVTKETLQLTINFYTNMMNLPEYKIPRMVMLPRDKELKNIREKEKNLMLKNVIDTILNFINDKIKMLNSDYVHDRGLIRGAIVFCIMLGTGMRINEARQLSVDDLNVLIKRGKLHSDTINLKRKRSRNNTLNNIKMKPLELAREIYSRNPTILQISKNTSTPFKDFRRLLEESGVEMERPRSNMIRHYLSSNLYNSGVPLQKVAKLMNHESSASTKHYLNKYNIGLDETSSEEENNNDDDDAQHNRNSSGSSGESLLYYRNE

The target in data set [2] is T1, *VLF-1 (HAHIS-VLF-1, very late …). This is another data set of the same source.
Data set [3] has the same target. The source holds these as a separate data set.
The target is the same in data set [4]. This is another data set of the same source.

B1: substrate VII, hairpin hr DNA (v-hr1/v-hr3) (structured_DNA)
DNA 1: GGGGTTTGTTTTTCAAAACTAAACTCGCTTTACGAGTAGAATTCTACTTGTAACGCACAATCAAGGGATGATGTCAGGGG
DNA 2: CCCCTGACATCATCCCTTGATTGTGAGTTTAGTTTTGAAAAACAAACCCC
For the molecule B1, the binding result in data set [1] was “binds”.

B2: substrate I, linear single-stranded DNA (4X12-2) (ssDNA)
DNA: TGGGTGAACCTGCAGGTGGGCAAAGATGTCCTAGCAATGTAATCGTCAAGCTTTATGCCGTT
With B2, in data set [2], the binding result was “no binding”.

B3: substrate V, cruciform (4X12-2/4X12-1/4X12-3/4X12-4a) (structured_DNA)
DNA 1: TGGGTGAACCTGCAGGTGGGCAAAGATGTCCTAGCAATGTAATCGTCAAGCTTTATGCCGTT
DNA 2: GACGCTGCCGAATTCTACCAGTGCCTTGCTAGGACATCTTTGCCCACCTGCAGGTTCACCC
DNA 3: CAACGGCATAAAGCTTGACGATTACATTGCTAGGACATGCTGTCTAGAGGATCCGACTATCGA
DNA 4: ATCGATAGTCGGATCCTCTAGACAGCATGTCCTAGCAAGGCACTGGTAGAATTCGGCAGCGT
Turning to B3, the binding result in data set [3] is recorded as “binds”.

B4: substrate IV, three-way junction (4X12-2/4X12-1/4X12-3) (structured_DNA)
DNA 1: TGGGTGAACCTGCAGGTGGGCAAAGATGTCCTAGCAATGTAATCGTCAAGCTTTATGCCGTT
DNA 2: GACGCTGCCGAATTCTACCAGTGCCTTGCTAGGACATCTTTGCCCACCTGCAGGTTCACCC
DNA 3: CAACGGCATAAAGCTTGACGATTACATTGCTAGGACATGCTGTCTAGAGGATCCGACTATCGA
As to B4, the binding result in data set [4] is given as “binds”.

B5: substrate II, linear double-stranded DNA (4X12-2/4X12-5) (dsDNA)
DNA 1: TGGGTGAACCTGCAGGTGGGCAAAGATGTCCTAGCAATGTAATCGTCAAGCTTTATGCCGTT
DNA 2: AACGGCATAAAGCTTGACGATTACATTGCTAGGACATCTTTGCCCACCTGCAGGTTCACCCA
For B5, in data set [2], the binding result was “no binding”.
